According to patent publication US20210324111A1 (UCB, published 2021):
Positions count from the first letter of the chain named.

B1: 645gL4gH5 Fab-A26 BYbe wt (bispecific antibody, part only; not given: A26 dsscFv, linker, CH1, CL, V domains shown, not shown: another chain or arm of the molecule; a dimerising Fc or GST; small tags and cut ends)
VH: EVQLLESGGGLVQPGGSLRLSCAVSGIDLSNYAINWVRQAPGKQLEWIGIIWASGTTFYATWAKGRFTISRDNSKNTVYLQMNSLRAEDTAVYYCARTVPGYSTAPYFDLWGQGTLVTVSS
VL: DIQMTQSPSSVSASVGDRVTITCQSSPSVWSNFLSWYQQKPGKAPKLLIYEASKLTSGVPSRFSGSGSGTDFTLTISSLQPEDFATYYCGGGYSSISDTTFGGGTKVEIK
B2: 645CDR-497FW Fab nh (Fab, V domains shown)
VH: EVQLVESGGGLVKPGGSLRLSCAASGIDLSNYAINWVRQAPGKGLEWVGIIWASGTTFYATWAKGRFTISRDDSKNTLYLQMNSLKTEDTAVYYCTTTVPGYSTAPYFDLWGQGTLVTVSS
VL: B1 VL with D1A, M4L, V11L, G103Q
notes: also called 497FW/645CDR Fab nh; 645CDR -497FW/645CDR Fab nh
B3: 645CDR-2109FW Fab nh (Fab, V domains shown)
VH: B2 VH with V48I, R71V, D73K, S74A, T77S, L78A, K86R, T87A, T97R
VL: B1 VL with V11L, A44V, S66T, F72Y, F84V, Y88F, G103Q, V107L
notes: also called 2109FW/645CDR Fab nh; #3
B4: 645CDR-497FW Fab-A26 ds HL BYbe (bispecific antibody, part only; not given: A26 dsscFv, linker, CH1, CL, V domains shown, not shown: another chain or arm of the molecule; a dimerising Fc or GST; small tags and cut ends)
VH: B2 VH
VL: B1 VL with D1A, M4L, V11L, G103Q
B5: 645CDR-2109FW Fab-A26 ds HL BYbe (bispecific antibody, part only; not given: A26 dsscFv, linker, CH1, CL, V domains shown, not shown: another chain or arm of the molecule; a dimerising Fc or GST; small tags and cut ends)
VH: B2 VH with V48I, R71V, D73K, S74A, T77S, L78A, K86R, T87A, T97R
VL: B1 VL with V11L, A44V, S66T, F72Y, F84V, Y88F, G103Q, V107L

The binders below were run against T1, Human serum albumin (human, UniProt P02768 25-609) (assay: SPR (Biacore), antibody captured on the chip, HSA as analyte, 25 C, 1:1 model).
T1 construct: Bought purified protein, injected as the analyte in SPR; also called HSA; Human albumin, ChromPure (Jackson ImmunoResearch)

Row | Kd [nM] | koff [s⁻¹] | kon [M⁻¹ s⁻¹] | Binder
1 | 1.61 | 0.00025 | 156000 | B1
2 | 4.63 | 0.000601 | 130000 | B2
3 | 1.52 | 0.000227 | 150000 | B3
4 | 1.23 | 0.000186 | 151000 | B4
5 | 4.74 | 0.000651 | 137000 | B5
